Data from the supplement of paper PMC9170038.

Tested on: MS2 coat protein
Assay: apparent KD of MS2 coat protein; designed switch direction (-1 OFF switch, 1 ON switch): -1; higher = weaker reporter binding
Summary of the method: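 Apparent KD, taken as the median over clusters for each design, was obtained by curve-fitting normalised cluster fluorescence. Designed RNA switches had been transcribed on Illumina chips by stalled E. coli RNA polymerase and titrated with SNAP-549-labelled MS2 coat protein, doubling from 0.7 or 1.5 nM to 3 µM.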

[1] = input ligand: microRNA oligo, concentration not stated
[2] = Eterna round: R95, input ligand: microRNA oligo, concentration not stated
[3] = Eterna round: R95, input ligand: FMN 200 uM
[4] = Eterna round: R95, input ligand: none

| Sequence | apparent KD of MS2 coat protein (input ligand: FMN 200 uM) | apparent KD of MS2 coat protein [1] | apparent KD of MS2 coat protein (input ligand: none) | apparent KD of MS2 coat protein [2] | apparent KD of MS2 coat protein [3] | apparent KD of MS2 coat protein [4] |
| --- | --- | --- | --- | --- | --- | --- |
| AUCAGCUCGUCAGGAUAUAUUAACAUGAGGAUCACCCAUGUAAGAUCAGGCUUCGGCCAAUGUUAAUAGAAGGGACGAGCUGAU [ENG2/12-B2] (Eterna round: R96, puzzle: Exclusion NG 2) | 710 nM | 29 nM | 133 nM | – | – | – |
| AUCAGCUCGUGAGGAUAUACAUGAUAGAUCGAUUAAUUAAUUAAUUUAACAUGAGGAUCACCCAUGUAGAAGGCACGAGCUGAU [ENG2/1-A3] (Eterna round: R96, puzzle: Exclusion NG 2) | – | 30 nM | – | – | – | – |
| AUCAUAUAACAAGCUUUUUACAUGAGGAUCACCCAUGUGGUUUUUAGUCUUAUCCCGGGCCCGAUAUCGGGCCCGGG [-33.4, -54.7, A 22%] (Eterna round: R97, puzzle: Sensor, turn-off variant 1) | 22.8 nM | – | 24.2 nM | – | – | – |
| AUCAUGUCAGGAUAUGUGAUAUGGAUCUUCGGAUCAAGUUCACAGAAGGGACAUGAGGAUCACCCAUGUCGAAC [Ex4-3: 30] (puzzle: Exclusion 4) | – | – | – | 40.1 nM | – | – |
| AUCAUGUUAGGAUAUUACGACGCAGCGGGUAGCCCGUAAAGUAAGAAGGAACAUGAGGAUCACCCAUGUUCAAA [EX4 B.22] (Eterna round: R97, puzzle: Exclusion 4) | 32.8 nM | – | 19.6 nM | – | – | – |
| AUCCAACAUGAGGAUCACCCAUGUCAGGAUAUACCCAUCUCCACCUAAUCGGUGGUGGGUAGAAGGGAUAUGUC [EX1 B.10] (Eterna round: R97, puzzle: Exclusion 1) | 22.6 nM | – | 18.9 nM | – | – | – |
| AUCCAGCGAGGAUAUACUUUGUUUUUUUCGUUUUGUCUCGAACAUGAGGAUCACCCAUGUAGAAGGUGCUUCAC [JR_Ex2_Sub005] (Eterna round: R97, puzzle: Exclusion 2) | 60.8 nM | – | 69.7 nM | – | – | – |
| AUCCGUAGGCGCACCUCACACAUGAGGAUCACCCAUGUGCCCUACAAUCGCAAGCUGUGCUCGUUGCUGGUCCCUAC [Eternabot (L1) Solution 16] (Eterna round: R97, puzzle: Sensor, turn-off variant 1) | 45.3 nM | – | 48.5 nM | – | – | – |
| AUCCUGUCAGGAUAUCUAGUUAAAUACAUGAGGAUCACCCAUGUCACUGGGCCGUCCUUAAGAGAAGGGACAGGCG [Edabe] (puzzle: Exclusion 5) | – | – | – | 34.5 nM | 169 nM | 39.7 nM |
| AUCCUUAACAAGGAUAUCGGGCGGGAAAUUGUUUGAGAAGGUGUAACAUGAGGAUCACCCAUGUAAAAUAUGAA [-14.9, -13.5 kcal, A 36%] (Eterna round: R97, puzzle: Exclusion 6) | 21.7 nM | – | 31.2 nM | – | – | – |
| AUGAGGUUAGGAUAUACAUGAGGAUCACCCAUGUUGAAAGGAUAGAUAAGAAAAGAUAGUAGAAGGAACAAAGA [JR_Exclu3_Sub052] (puzzle: Exclusion 3) | – | – | – | 34.9 nM | 34.4 nM | 39.2 nM |
| AUGCUCCGUGUAGGAUAUCGCCGUACUAUUCGGCGAGAAGGACAUGAGGAUCACCCAUGUAUGUUAUUAUCACGUGUGGCGCGC [Design 48] (Eterna round: R96, puzzle: Exclusion NG 1) | 57 nM | 14.5 nM | 18.9 nM | – | – | – |
| AUGCUCCGUGUAGGAUAUCGCCGUAUUAUUCGGCGAGAAGGACAUGAGGAUCACCCAUGUAUGUUAUUAUCACGUGUGGCGCGC [Design 47] (Eterna round: R96, puzzle: Exclusion NG 1) | 41.8 nM | 13.6 nM | 21.8 nM | – | – | – |
